# Results from paper PMC8825798 (Communications Biology, 2022).
# Values joined by “and” are separate entries in the source; they are usually repeats but may differ in a detail not shown here. Identical values can stand only once.
# B1: αCOPI-WD40 domain (residues 1-327) from Schizosaccharomyces pombe (domain or fragment)
# chain: MEMLTKFESRSSRAKGVAFHPTQPWILTSLHNGRIQLWDYRMGTLLDRFDGHDGPVRGIAFHPTQPLFVSGGDDYKVNVWNYKSRKLLFSLCGHMDYVRVCTFHHEYPWILSCSDDQTIRIWNWQSRNCIAILTGHSHYVMCAAFHPSEDLIVSASLDQTVRVWDISGLRMKNAAPVSMSKEDQKAQAHNSKSNDKKGSTDAIVKFVLEGHDRGVNWCAFHPTLPLILSAGDDRLVKLWRMTASKAWEVDTCRGHFNNVSCCLFHPHQELILSASEDKTIRVWDLNRRTAVQTFRRDNDRFWFITVHPKLNLFAAAHDSGVMVFKLE
# Experiments:
# Experiment in all cases: BLI
# Conditions in all cases: both partners purified
# [1] = molecular target: T1, spike hepta-peptide Thr1273 → Val (SARS-CoV-2, Thr^1273 → Val (stands in the printed letters))
# T1 peptide: GVKLHYV
# [2] = molecular target: T2, spike hepta-peptide Thr1273 → Glu (SARS-CoV-2, Thr^1273 → Glu (stands in the printed letters))
# T2 peptide: GVKLHYE
# [3] = molecular target: T3, spike hepta-peptide Thr1273 → Gln (SARS-CoV-2, Gln^1273 (stands in the printed letters))
# T3 peptide: GVKLHYQ
# [4] = molecular target: T4, spike hepta-peptide Thr1273 → Ala (1267Gly-Val-Lys-Leu-His-Tyr-Ala1273) (SARS-CoV-2, Thr^1273 → Ala (stands in the printed letters))
# T4 peptide: GVKLHYA
# [5] = molecular target: T5, spike hepta-peptide Thr1273 → Arg (SARS-CoV-2, Arg^1273 (stands in the printed letters))
# T5 peptide: GVKLHYR
# [6] = molecular target: T6, spike hepta-peptide Tyr1272 → Ala (1267Gly-Val-Lys-Leu-His-Ala-Thr1273) (SARS-CoV-2, Tyr^1272 → Ala (stands in the printed letters))
# T6 peptide: GVKLHAT
binder,measurement,setting,value
B1,Kd,[1],3200 nM and 2060 nM
same,koff,[1],0.212 s⁻¹
same,kon,[1],103000 M⁻¹ s⁻¹
same,Kd,[2],310 nM and 380 nM
same,koff,[2],0.024 s⁻¹
same,kon,[2],59000 M⁻¹ s⁻¹
same,Kd,[3],780 nM and 1150 nM
same,koff,[3],0.066 s⁻¹
same,kon,[3],60000 M⁻¹ s⁻¹
same,Kd,[4],1130 nM and 1140 nM
same,koff,[4],0.076 s⁻¹
same,kon,[4],66700 M⁻¹ s⁻¹
same,Kd,[5],1730 nM and 1290 nM
same,koff,[5],0.177 s⁻¹
same,kon,[5],57600 M⁻¹ s⁻¹
same,Kd,[6],3770 nM and 2320 nM
same,koff,[6],0.28 s⁻¹
same,kon,[6],121000 M⁻¹ s⁻¹
